Measured values from US20250171558A1.
pKd: −log10 of the molar value.

Legend:
[1] = target: FcγRIIb; experiment: SPR; rhesus FcγR
[2] = target: FcγRIIa; experiment: SPR; rhesus FcγR
[3] = target: FcγRIII; experiment: SPR; rhesus FcγR
[4] = target: FcγRI; experiment: SPR; rhesus FcγR
[5] = target: FcγRIIIa F; experiment: SPR; human FcγRIIIa F157
[6] = target: FcγRIIb; experiment: SPR; mouse FcγR
[7] = target: FcγRIII; experiment: SPR; mouse FcγR
[8] = target: FcγRIV; experiment: SPR; mouse FcγR
[9] = target: FcγRI; experiment: SPR; mouse FcγR
[10] = target: FcγRIIIa V; experiment: SPR; human FcγRIIIa V157
[11] = target: FcγRIIa R; experiment: SPR; human FcγRIIa R131
[12] = target: FcγRIIa H; experiment: SPR; human FcγRIIa H131
[13] = target: human FcRn/B2 microglobulin; experiment: SPR; pH 6.0

Substance	pKd [1]	pKd [2]	pKd [3]	pKd [4]	pKd [5]	pKd [6]	pKd [7]	pKd [8]	pKd [9]	pKd [10]	pKd [11]	pKd [12]	pKd [13]
GAALIE	5.16	5.04	7.04	9.34	6.79	5.79	5.62	6.68	6.36	6.88	6.09	6.21	–
GAALIE LS+	–	–	–	–	–	–	–	–	–	–	–	–	8.85
GAALIE LS-	–	–	–	–	–	–	–	–	–	–	–	–	7.70
GAIE	5.96	5.85	7.06	9.29	6.79	5.94	5.60	6.59	6.67	6.89	6.69	6.60	–
GAIE LS+	–	–	–	–	–	–	–	–	–	–	–	–	8.70
GAIE LS-	–	–	–	–	–	–	–	–	–	–	–	–	7.70
SDIE	6.27	6.16	7.52	9.36	7.32	6.40	5.97	8.07	7.85	7.53	6.45	6.11	–
SDIE LS+	–	–	–	–	–	–	–	–	–	–	–	–	8.92
SDIE LS-	–	–	–	–	–	–	–	–	–	–	–	–	7.90
